This passage reports stoichiometry N results from paper PMC11480323.

The assay addresses Cas7 of the type I-F Cas8-HNH system from Selenomonas sp. isolate RGIG9219 (Selenomonas sp. isolate RGIG9219). As to the kind of experiment: cryo-EM structure; Cas8-HNH Cascade-crRNA ribonucleoprotein complex in the target-free state, 3.6 Å; subunits co-expressed in E. coli with crRNA and purified as one complex.

On to “Cas7 of the type I-F Cas8-HNH system from Selenomonas sp. isolate RGIG9219 (natural protein)”, for which the stoichiometry N – broadly, the number of molecules, sites or subunits per partner or assembly – was 6.
